Laboratory results reported in publication doi:10.1101/2024.05.05.592584 (bioRxiv, 2024).

B1: C1533 IgG (antibody, V domains shown)
VH: QVQLVQSGAEVKKPGSSVKVSCKTSGVIFSRNAFSWVRQAPGQGLEWMGRIIPFLDVTNSAQEFQGRVTLNADKSTSTVYMELSSLRSEDTAIYYCARHNGDPYDFWSGYNTWAGGLDVWGQGTTVTVSS
VL: QSVLTQPPSASGTPGQRVTISCSGSGSNIGSNAVNWYQQLPGTAPKLLIYNQNQRPSGVPDRFSGSKSGTSASLAIGGLQSEDEADYYCATWDDNLSGLVFGGGTKLTVL
notes: copies: 2 + 2
B2: C1596 IgG (antibody, V domains shown)
VH: QVQLVQSGAEVKKPGSSVKVSCKASGGTFINYAVTWVRQAPGQGLEWMGGIIPILGIPNYAQKFQGRVTITADKSTSTAYMELSSLRSEDTAVYYCARVPQAGAAQGHYYYYYGMDVWGQGTTVTVSS
VL: not shown
notes: copies: 2 + 2
B3: C1596 Fab (Fab, V domains shown)
VH: B2 VH
VL: not shown
B4: C952 IgG (antibody, V domains shown)
VH: EVQLVQSGAEVKKPGESLTISCKDSGNSFTIYWIGWVRQMPGKGLEWMGMIYPGDSGTRYSPSFEGQVTISADESINTAYLQWRSLKASDTAMYYCVRGIAVDWYFDLWGRGTLVTVSS
VL: QSVLTQPPSVSGAPGQRVTISCTGSSSNIGAGFDVHWYQQLPGTAPKLLIYGNNNRPSGVPDRFSGSKSATSASLAITGLQAEDEADYYCQSSDSSLSGLYVFGTGTNVIVL
notes: copies: 2 + 2
B5: C1520 IgG (antibody, V domains shown)
VH: EVQLVESGGGLVQPGGSLRLACVASGFTFSIYEMNWVRQAPGKGLEWVSYITTSGHARYNADSVKGRFTISRDNSKNSFYLQMNSLRAEDTAIYYCARPQYHYYDTSTYHSYGFDIWGQGTMVTVSS
VL: QLVLTQSPSASASLGASVNLTCTLSSGHNSYAIAWHQQQPEKGPRYLMSLNSDGSHTKGDGIPDRFSGSSSGAERFLTISSLQSEDEADYYCQTWDTGIRVFGGGTRLTVL
notes: copies: 2 + 2

Tests used:
Test in all cases: BLI
Details in all cases: both partners purified
[1] = target: SARS-CoV-2 Wuhan-Hu-1 NTD (SARS-CoV-2 Wuhan-Hu-1, UniProt P0DTC2)
SARS-CoV-2 HV.1 NTD = target: T1, SARS-CoV-2 HV.1 NTD (SARS-CoV-2 Omicron HV.1, strain)
T1 chain: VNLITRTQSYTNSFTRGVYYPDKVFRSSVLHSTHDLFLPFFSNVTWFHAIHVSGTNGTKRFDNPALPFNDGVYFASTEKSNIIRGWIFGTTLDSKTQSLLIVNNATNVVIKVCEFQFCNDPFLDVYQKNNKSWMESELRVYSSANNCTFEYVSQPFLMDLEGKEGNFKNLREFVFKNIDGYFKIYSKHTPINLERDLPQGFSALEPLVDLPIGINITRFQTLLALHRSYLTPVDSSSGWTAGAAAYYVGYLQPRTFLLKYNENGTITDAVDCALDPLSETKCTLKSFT

SARS-CoV-2 RBD protein = SARS-CoV-2 RBD protein (SARS-CoV-2 Wuhan-Hu-1, UniProt P0DTC2)
[2] = target: SARS-CoV-2 RBD-SD1 protein (SARS-CoV-2, Wuhan-Hu-1 lineage (GenBank …, UniProt A0A679G9E9))
[3] = target: SARS-CoV-2 Wuhan-Hu-1 NTD protein (SARS-CoV-2 Wuhan-Hu-1, UniProt P0DTC2)
[4] = target: SARS-CoV-2 Wuhan-Hu-1 RBD (SARS-CoV-2 Wuhan-Hu-1, UniProt P0DTC2)

Binder | Kd [1] [µM] | koff [1] [s⁻¹] | kon [1] [M⁻¹ s⁻¹] | further results
B1 | 0.0171 | 0.000547 | 32000 | –
B2 | 0.125 | – | – | Kd (SARS-CoV-2 HV.1 NTD): 0.553 µM
B3 | – | – | – | binding result (SARS-CoV-2 RBD protein): no binding; binding result [2]: no binding; Kd [3]: 0.16 µM
B4 | – | – | – | Kd [4]: 0.00635 µM; koff [4]: 0.00176 s⁻¹; kon [4]: 278000 M⁻¹ s⁻¹
B5 | 0.0248 | 0.000393 | 15900 | –
